One protein from doi:10.1101/2023.03.27.534416 (bioRxiv, 2023) can be followed below.

The data set deals with the molecule itself. The experiment in a line: MST.

B1: MRE11 structured-domain (1-411 aa) (domain or fragment, UniProt P49959 1-411, looked up)
chain: MSTADALDDENTFKILVATDIHLGFMEKDAVRGNDTFVTLDEILRLAQENEVDFILLGGDLFHENKPSRKTLHTCLELLRKYCMGDRPVQFEILSDQSVNFGFSKFPWVNYQDGNLNISIPVFSIHGNHDDPTGADALCALDILSCAGFVNHFGRSMSVEKIDISPVLLQKGSTKIALYGLGSIPDERLYRMFVNKKVTMLRPKEDENSWFNLFVIHQNRSKHGSTNFIPEQFLDDFIDLVIWGHEHECKIAPTKNEQQLFYISQPGSSVVTSLSPGEAVKKHVGLLRIKGRKMNMHKIPLHTVRQFFMEDIVLANHPDIFNPDNPKVTQAIQSFCLEKIEEMLENAERERLGNSHQPEKPLVRLRVDYSGGFEPFSVLRFSQKFVDRVANPKDIIHFFRHREQKEKTGEE
modifications: amine-reactive AlexaFluor-647 dye on the labelled copy; the titrated copy is unlabelled
One may read the Kd as a measure of binding affinity in units of concentration. A lower Kd goes with higher affinity. As to B1, the affinity, expressed as Kd, was 370 ± 80 nM.
